One test concerns the target Lpg2149, wild type (Legionella pneumophila, UniProt Q5ZTL2 1-119). The test is described as follows: ITC. The settings on record: both partners purified.
The next test has as its target Lpg2149 (aa 9–119) (Legionella pneumophila, UniProt Q5ZTL2 9-119). In words: crystal structure. The settings on record: both partners purified.

Here are results for two molecules from PMC7265302 (Nature Communications, 2020).

As usually defined, the Kd is the concentration at which binding is half-saturated. Read a high Kd as lower affinity.

B1: MvcA, wild type (enzyme)
chain: MIVRGINMTKIKLESPGFMVHKKLKSMSQSYGVMMTGVPAEVLGQMQAERSIPSINKTGNLKQQIAKEVSKVCHMMTEPTQSCGQASNDVCELLLGKIEAEKFHFTKYEALSADGDNLKNVLENTAPSSTNLLIRFEIDREDPPIVLVKTKNENFNPETAVKNKIYLLENKLYFIDKMGNLFNLGPGKKKCTQLFNAIGDSAEYSLCDPFVLEEPEKPEDFAISEIVDIFNEQKERFDFWIGSHSFTIYIPQTLGESPRQFYPYQAYFGSHTLQDWFVSDKDEYLSRIGIDKYIEKLAVLGKTTNTKERSDIYAEFFSKRGREAFFCAHLNEKRQPLRVKFKITEINPELALKNLQETQEFIDTHPGENPSDKVENYRNRAKLAMTEHLESLLDIKPESSPSLFWKNVDKKEQEMTDSSRYKKGPS
Consider B1, for which, in the test with Lpg2149, wild type, the dissociation constant Kd was ~28.1 nM.

B2: MvcA (aa 1–400) (enzyme)
chain: MIVRGINMTKIKLESPGFMVHKKLKSMSQSYGVMMTGVPAEVLGQMQAERSIPSINKTGNLKQQIAKEVSKVCHMMTEPTQSCGQASNDVCELLLGKIEAEKFHFTKYEALSADGDNLKNVLENTAPSSTNLLIRFEIDREDPPIVLVKTKNENFNPETAVKNKIYLLENKLYFIDKMGNLFNLGPGKKKCTQLFNAIGDSAEYSLCDPFVLEEPEKPEDFAISEIVDIFNEQKERFDFWIGSHSFTIYIPQTLGESPRQFYPYQAYFGSHTLQDWFVSDKDEYLSRIGIDKYIEKLAVLGKTTNTKERSDIYAEFFSKRGREAFFCAHLNEKRQPLRVKFKITEINPELALKNLQETQEFIDTHPGENPSDKVENYRNRAKLAMTEHLESLLDIKPESS
Consider B2, for which, in the test with Lpg2149 (aa 9–119), the binding result was “binds”.
